# Experiment: label from the status in PepcDB records
row,Sequence,protein production
1,MVEEVQKHSVHTLVFRSLKRTHDMFVADNGKPVPLDEESHKRKMAIKLRNEYGPVLHMPTSKENLKEKGPQNAPDSYPHKQYPANQGQDVEYLVTGTHPYPPGPGVALTADTKIQRMPSESAAQSLAVALPSQTRVDANRTAPAGSEYRHPGASDRSQPTAMNSMIMETSNTKNSALMAKKAPTMPKPQWHPPWKLYRVISGHLGWVRCIAVEPGNQWFVTGSADRTIKIWDLASGKLKLSLTGHISTVRGVIVSTRSPYLFSCGEDKQVKCWDLEYNKVIRHYHGHLSAVYGLDLHPTIDVLVTCSRDSTARIWDVRTKASVHTLSGHTNAVATVRCQAAEPQIITGSHDTTIRLWDLVAGKTRVTLTNHKKSVRAVVLHPLHYTFASGSPDNIKQWKFPDGGFIQNLSGHNAIINTLAVNTDGVLVSGADNGTMHLWDWRTGYNFQRVHAAVQPGSLDSESGIFACAFDRSESRLLTAEADKTIKVYREDETATEETHPVSWKPEIIKRKRF,failed
2,SREPVDILREQKINAEWALKQQSDKLAAQFDNMDDAYLRERKQDMLQVVRRIHNNLIGQGNELEVADNLFDETVLIANDLSPADTVLFKEQR,failed
3,MELWTHPTPAAPRLATSTRTRWRRTSRCSQPWATTPGTNSSDASRTPTTASASATSKPQSASARARSVRRSPDCTPRAWSRGARKDRGATTNRPRRPKFCSKRSTTCEATMSNDNETMVADRDPEETREMVRERYAGIATSGQDCCGDVGLDVSGDGGCCSDETEASGSERLGYDADDVASVADGADLGLGCGNPKAFAAMAPGETVLDLGSGAGFDCFLAAQEVGPDGHVIGVDMTPEMISKARENVAKNDAENVEFRLGEIGHLPVADESVNVVISNCVVNLAPEKQRVFDDTYRVLRPGGRVAISDVVQTAPFPDDVQMDPDSLTGCVAGASTVDDLKAMLDEAGFEAVEIAPKDESTEFISDWDADRDLGEYLVSATIEARKPARDD,failed
4,MATTKRVLYVGGLAEEVDDKVLHAAFIPFGDITDIQIPLDYETEKHRGFAFVEFELAEDAAAAIDNMNESELFGRTIRVNLAKPMRIKE,not failed
5,MLVSEAVLPLLFYGILTPVYQVILRGKISNVKGFYLAWITAPFLVGYFFYSTLVEVFLLLIFNIIGYIIVLKNKYKYIFPLLLFSAVIIQIFYILTTLHTIHG,failed
6,MKAELIAVGTEILTGQIVNTNAQFLSEKMAELGIDVYFQTAVGDNEERLLSVITTASQRSNLVILCGGLGPTKDDLTKQTLAKYLRKDLVYDEQACQKLDDFFAKRKPSSRTPNNERQAQVIEGSIPLPNKTGLAVGGFITVDGISYVVLPGPPSELKPMVNEELVPLLSKQYSTLYSKVLRFFGIGESQLVTVLSDFIENQTDPTIAPYAKTGEVTLRLSTKTE,failed
7,MATKARVMYDFAAEPGNNELTVTEGEIITVTNPNVGGGWLEGKNNKGEQGLVPTDYVEILPNDGKDPFSC,not failed
8,MHPVKALKQGVKNGTMPIIARFYGIIIKMFFNEHLPPHFHALYGEYNAIFNINTLEMIEGDMPLRARKLVVEWAENHQKELEIMWETKEFKQLPGLELEHHHHHH,not failed
9,MVNYKEKLDEAIHLTQQKGFEQTRAEWLMLDVFQWTRTDFVVHMHDDMPKAMIMKFDLALQRMLLGEPIQYIVGFASFYGRTFDVNSNCLIPRPETEEVMLHFLQQLEDDATIVDIGTGSGVLAITLKCEKPDLNVIATDISLEAMNMARNNAEKHQSQIQFLTGDALKPLINEGIKLNGLISNPPYIDEKDMVTMSPTVTRFEPHQALFADNHGYAIYESIIEDLPHVMEKGSPVVFEIGYNQGEALKSIILNKFPDKKIDIIKDINGHDRIVSFKW,failed
10,PLGVSAAGALDRASLRRANRLVGNASSAAAIESVNGGLTVEAVGDQVIAVTGAPTTLTIESPSWVGSDDDDGGARPGGKRTVPMAAPFALLDGELLTLGAPESGFRNYVAIRGGVDAPEVLGSRSADTMSGIGPAPLAIRQVLATGEQTASTAVGAPELQPDFPGAGVTVLDVVPGPRADWFDQEALDSLCNQEWLVTPQSNRVGMRLDGKPLERTREGELPSEGTMAGALQIPPAGLPVLFLADHPITGGYPVIGVVRDEHLDRAAQVPIGGRIRFRLVPDSADFTTTTTKTPEK,not failed
11,MKSVSTWALSFFSDELSRRAVSDCYLWTTAISLLLILLLHIFFSTKFRFFTSAPSSSSSSSSSSSPSTESVPANSQSRISKLVSDEDLKFLIENLEEETNDSTEIWEHVIHKSNDRISYSAKRCKPKDGGGPMKYLSVTVFEGFSAEIVRDFYMDNDYRKLWDKTVVEHEQLQVDSNTGIEIGRTIKKFPLLTSREYVLAWRLWQGKEKKFYCFTKECDHNMVPQQRKYVRVSYFRSGWRIRQGNILSTFDTYLTDTFDTLAAVPGRNACEIKMFHQENAGLNVEMAKLAFSKGIWSYVCKMENALCKYIATSHRTQGPILSAVTLMKEVPSELETGTDNVTGSMETSSGEGVLSHVVAAKQKKKMRKPSTKLIAKGLVLVGGAICLSRGPSALGAKVALAYLLTKLNKRGTSLNQTTQTTTI,failed
12,QHTEERELKKRLMNTARTVSEMTEVKEALARKKQTEAVRHAVEEIRMINEADYIVVMDMNHIRYTHPVSTSIGKKSEGADEEAAFAEHIYFSEAKGEIGTAVRAFYPVKDQDLNQIGVVLVGKTLPGIAD,failed
13,ALAETVSDFRLPNGLEVVVIEDHRAPVVTHMVWYRVGAADEPPGHSGIAHFLEHLMFKGTDEMSAGEFSATVEAQGGDDNAFTSWDYTAYFQRVAADRLDLMMKMEADRMRDLQMTEEDVRTERQVVLEERSQRTDSDPGAVFSEQSRAAAYLNHPYGIPIIGWRHEIEQLGREDAFSFYRTYYAPNNAILVVAGDVDPAEVRRMAEEHYGALEPTP,failed
14,MAAGKTHDKITVIMTPFIASFFLFINMIFLEDLGSSLAFTILGVSIYMFGGYMFSGDLDIKSREFRRWGYLKFIWIPYQKLFEHRSVFTHGFILGPIIRILYVSIIPITISSLLYSFSIINISTPEMLKLVFNFILKNKILFGNMALALFLGSGLHTITDMIYSYFKRKFSYKKRKSSKKYSRSKRPSRRAA,failed
15,MVMMSKQLTAQAPVDPIVLGKMGSSYGIRGWLRVFSSTEDAESIFDYQPWFIQKAGQWQQVQLESWKHHNQDMIIKLKGVDDRDAANLLTNCEIVVDSSQLPQLEEGDYYWKDLMGCQVVTTEGYDLGKVVDMMETGSNDVLVIKANLKDAFGIKERLVPFLDGQVIKKVDLTTRSIEVDWDPGFLEHHHHHH,failed
16,EIKIGITMSASGPGAALGQPQSKTVAALPKEIGGEKVTYFALDDESDPTKAAQNARKLLSEEKVDVLIGSSLTPVSLPLIDIAAEAKTPLMTMAAAAILVAPMDERRKWVYKVVPNDDIMAEAIGKYIAKTGAKKVGYIGFSDAYGEGYYKVLAAAAPKLGFELTTHEVYARSDASVTGQVLKIIATKPDAVFIASAGTPAVLPQKALRERGFKGAIYQTHGVATEEFIKLGGKDVEGAIFAGEAFSGAEDMPADSPFRKVKARFVDAYKAANGGAAPTIFGVHLWDSMTLVENAIPAALKAAKPGTPEFRAAIRDQIEKSKDLALNNGLSNMTPDNHNGYDERSAFLIEIRDGAFRLKQ,not failed
17,MAKKRESPKLIKIKDAIKLINQQVSLIGIVLEQREPKQCRNNDWICTLRIIDDTYPSPGLTVNVFSKTLEQLPQIKNHDDMILFTRIKMQTFDSGERVNAACSRWVSSFALFEGVDFVCYQCSTNFHEEEALYKSAMDDLRKVFAGCSQVIKAMQSISYRTKPCSEVFSFLREIKIGKRFDLVCRILHADEDTSAVFVWDGTDAPPASILAKRSEEDKAFSSLSVHTLLSRDVLLSFPTVGTILRVHLSSHLFYRVKPGDWVKLYHLLCEVDRGSWVIKVTSSTKVHHLAQDDRLVEKIMRIYDKRLSSKLGHISFWCFPSPPGLTETDDNCAPFVTLMDIITFPKVTCKYRCIVRVVAAYPWQVEDFCSDENRRHHQVLLTLEDSTATLEAFLCNKDAEYFWGLGFQDTETLRKKRNWLLGIRESSNFVAPRNPPWIECCILSYYTNKADPWNTRLYRIFGTRLLH,failed

# From a protein production outcome set (Wang et al. 2014)
